# Tested on: E6N2 (E6 Fn3-mouse IgG2a Fc-human PKR dsRBD fusion, homodimer) C121V,C135V (in dsRBD) (Homo sapiens)
# Assay: flow
# Conditions: KD,app; E6N2 on Protein A beads; DMEM+10% FBS, 37 C, 1 h; pH presumably 7.4; avidity from bivalent dsRBD
substance,measurement,value
AllStars Negative Control siRNA (Qiagen),Kd,3.5 nM
